{"source": "the DeepSol protein solubility set"}
{"assay": "soluble on expression in E. coli; label from the status in PepcDB or PDB records"}
{"sequence": "MSLGKTSMIHAIVDQYSHCEWVENSMSANENNLIWIDLEMTGLDPERDRIIEIATLVTDANLNILAEGPTIAVHQSDEQLALMDDWNVRTHTASGLVERVKASTMGDREAELATLEFLKQWVPAGKSPICGNSIGQDRRFLFKYMPELEAYFHYRYLDVSTLKELARRWKPEILDGFTKQGTHQAMDDIRESVAELAYYREHFIKLEGGSHHHHHH", "soluble on expression in E. coli": "soluble"}
{"sequence": "MSLGNARMYEALRDYGDRFDTVGIFTFEVDETGTITETGTSISSMLPYIQKWPHIKWLLTIMNHGIANIFTALRNNENGAKDKFLTEIIRIMNKYPWCAGVDIDLERGGGYENKDAANALFRDIYNTVKSYDATKLVNICLPGMIGVQGSVGGENWCVYADLNDYCDTAAIMSYGMAWAGSAPGPVSPRDWLEGIYDYAVSVMSPDKIFMGLPAYGWNWRIHDTPENLGITYRGVSNTYYAAKYWMTGVYNFTGDAPPQPFIPIVAYWDDYNKVPWALPHVYDYMEGWDAVSWEYPLLKGVYNRRRYLTSYGKEQKAEFGTIYIDRNGVPDEYEGNVIITDEMTSLGDAQASAEYRFEIREAGYYDIAVQLCFPYWDKNAIIVSLDGISKTFSENRLWWPYWRRVCWLTLAKGVFLQEGTHAISISGGVPGVQFYGFRVCSGFSEYPFAGEASFMLSPRRFKDVNGVMVEPDRGFKLTFEMLRRKPDSALIWYEDFRDRNILPENYWTVLDGEWDVWQDPDSTENRPYSQLEGYGKLAWKYDGFSDIHIRARLAFPQNSSGRAGVFLGDIFCCLNYDTQRVELYQGNSLLGSYSTSFSKTVDADLRANPNMYTIEMRKRGNKVRVYSGAASTLRFTVNVTGGSGYVGYCSDNRTVCELLRLGDAWVYEPYERFDVELPDGNITSFGRLARTGVTWDDEFQVFSVNNDVEESITRSEDISMDYDFFHSQLLALSCGNDYEVKIILKDINIWISRLFLGDADGFSILYYQDVDSLVYWANEAAYRWKLRGIAIWSLGQEDMRLWEALPKQEGHHHHHH", "soluble on expression in E. coli": "soluble"}
{"sequence": "MSLGNNYAAKVNDQEISRGQFENAFNSERNRMQQQLGDQYSELAANEGYMKTLRQQVLNRLIDEALLDQYARELKLGISDEQVKQAIFATPAFQVDGKFDNSRYNGILNQMGMTADQYAQALRNQLTTQQLINGVAGTDFMLKGETDELAALVAQQRVVREATIDVNALAAKQPVTEQEIASYYEQNKNNFMTPEQFRVSYIKLVAATMQQPVSDADIQSYYDQHQDQFTQPQRTRYSIIQTKTEDEAKAVLDELNKGGDFAALAKEKSADIISARNGGDMGWLEDATIPDELKNAGLKEKGQLSGVIKSSVGFLIVRLDDIQPAKVKSLDEVRDDIAAKVKHEKALDAYYALQQKVSDAASNDTESLAGAEQAAGVKATQTGWFSKDNLPEELNFKPVADAIFNGGLVGENGASGINSDIITVDGDRAFVLRVSEHKPEAVKPLADVQEQVKALVQHNKAEQQAKVDAEKLLVDLKAGKGAEAMQAAGLKFGEPKTLSRSGRDPISQAAFALPLPAKDKPSYGMATDMQGNVVLLALDEVKQGSMPEDQKKAMVQGITQNNAQIVFEALMSNLRKEAKIKIGDALEQQEGHHHHHH", "soluble on expression in E. coli": "soluble"}
{"sequence": "MSLGNPAAMLAAYNTSTQVAPQPQLGPRAGEVQLSSEQQAMIDYVLAGKDVIVDATVGSGKTTAIQRLCSIMGADHDVLYLTYSKLLKVDAQQRVRGAKVQNYHGIVYPHLLKAGIKCGISESIREFNKNFKHISRTFPSYDLLVIDEYQDINEDYAELLRNIKSVNPLMQIVMVGDLEQKVRSDTEGHHHHHH", "soluble on expression in E. coli": "not soluble"}
{"sequence": "MSLGNSAGFGSVGDNSSGGSGANRDANNRPSWFQETARRTIPNTVLRREVKSSSNSGEDDNGNRGDSTSTGFNTLTFGAKKHMLLGSSNVSTGGNDHMNPLLMDNSEAPPTVSISDWKREEGLFDLRNTRNENTINTIGTPTFISPISREKSEVSLFDSNSQSRSSSASSIGSESETGNAVVVFGYREAITKQILAYFAQFGEILEDLESELGDTETMRTPGYFFQQAPNRRRISREHGRTWTKLTYANHSSYLRALREHGTIYCGAAIGCVPYKHELISELSRDTYNSMNDVKQTNSISTNQLTQHNQSEVPKSNQTFETKPTNETERNQIKTPSAFGSDNKGNGSISSGRTKRRLSIKDGSSLFLSGTEGHHHHHH", "soluble on expression in E. coli": "soluble"}
{"sequence": "MSLGPYYINTHFLYGSEEKANKLLEFIDKEKENILKCPDRILEETMKNYQSDPIYRGLIDEMCDFIKNNIDVNEVDYISGGERRDWFFSPIIAKLLNKPHITIYKDLTTVVSSDGKTEELKELNGESVLHIADLITEASSYERAWIPAIKNNGGRIKWSVVVVDRKQGGAELLKSYDIKSFSMVDIDIGLFKRVLDMGLIDRGQFEMIEQYILDPKESMAKFLRKNEGHHHHHH", "soluble on expression in E. coli": "not soluble"}
{"sequence": "MSLGSFTDVPANSQFYTEISWLASQGISTGWVEANGTSTYRPALAVNRDAMAAFMYRLAGSPAYTPPGTSPFIDVTPQTQFYKEIAWLASKGISTGWDEGNGAKSYRPLQTVNRDAMAAFMYRFAGSPAYNAPGASLFTDVVPQTQFYKEINWLASMNISTGWVEGNGTRTFRPVQSVNRDAMAAFMYRYNNAFPAEGHHHHHH", "soluble on expression in E. coli": "not soluble"}
{"sequence": "MSLGSGSGLSYNAGITQDNFLGMGSSLGLNGSRNTDSTNVNLSYTEPYFTKDGVSLGGNIFYEDYDNSARKASAAYKRKTYGASGTLGFPVDENNSYYLGLGYTHDKLRNVEREYTREKYVNSMKFPINPQNSHYDRIQSADFDLSFGWNYNNLNRGYFPTAGSSANISGKLTLPGSDNKYYQVGTNFSGYIPLNSEHKWVIATKGGLAYTNSFGGKEVPFYQLYSAGGMGSLRGFAGGSIGPKAIYYREDGFKAPSQDVIGGNAMVNASLELIIPAPFISDKYQHNVRTSVFVDAATVWNTKWKQSKADYPNLPDFGDYKRVRASAGIALQWQSPIGPLSFSYAKPIKKYAGDEIEQFQFTVGSTFEGHHHHHH", "soluble on expression in E. coli": "not soluble"}
{"sequence": "MSLGTFRFGTSATPEGKTLLVDSKGLILDGKHIIPVMGEIHYSRVPESEWRREIRKMKAGGINIISTYIFWIHHEPEEGKWNWSGNHNLRRFVRICAEENVMLVLRLGPFCHGEVYQGGIPSWVHEKAGQNPKYKIRARTPGFLEDCTELYNTIFAQVNGLLWKDGGPVVGVQIENESRGPWDYLEALKNIAVKAGFDVPFYTRTGWPALRGKEVFGQLLPLYGDYADGFWDRKLEDMPGSYADAFIMRDKRMSSAIATETFSKEELSEDSPSLSSKLSYPYFTCELGGGMMPAYHRRININGKELKPLVICKLGSGSNLPGYYMYHGGTNPYNPLHTMGETQSSPGTNHNDLPHMTYDFQAPLGEVGQVFETPFHEGRFIHQMLTDWGSELLQMNVDSLSRHYARRGAFEFYNDYVRIKNESGTSHVTFKDYRTEGATIDWTTVEPFCKVDGLIYFIEIRGKKPQISVDGKVYTCKLNKQQKAGKLNVCVLSYEKAKTAYKIDGKLLYAKNGGILYKSDSCIVEEVWTKSPVIAATVTEVKKADAPRVVPMGRQAVAAQPVEEDFAKAAVYTINYDTSGINNYDNLFLRINYRGDVARVYADGRLVADNFWNGKEMWVRMADLVGKKVELKILPLRKDAPVYFQKEQKAMIEATKGDYMLGLDSVEVIERHTLEFNDTEGHHHHHH", "soluble on expression in E. coli": "soluble"}
{"sequence": "MSLGTPSEPTSTLESDIFDDLSLYYLEDVFLSATTPSPTFDLSDPSDPSLSDSFDSEWSPMTPCSIERPETSTSSIFSFEARPIKTPPPAEYLRLPTFLSTNNSGFFDSVVASDFNLYGKFNDWLNDSKPRSGSFAIESAEELARNPRETRSEPEVPSLFKRREYGCGYCRSVGYMRWETHTRKKCDKLSSLAPCKICGARGEMNHTETYCPMKPSSQLFFNEDFSRDFENRRFQRSRYQFYKHSSLIQKIYASSEDSF", "soluble on expression in E. coli": "not soluble"}
{"sequence": "MSLGVTMHDVAKAAGVSAITVSRVLNQPQQVSEQLREKVMQAVDALAYVPSRSASTLASAKSRTVLVLIPSLANTVFLETLTGIETVLDAAGYQMLIGNSHYDAGQELQLLRAYLQHRPDGVLITGLSHAEPFERILSQHALPVVYMMDLADDGRCCVGFSQEDAGAAITRHLLSRGKRRIGFLGAQLDERVMKRLDGYRAALDAADCRDAGLEWLDPQPSSMQMGADMLDRALAERPDCDALFCCNDDLAIGALARSQQLGIAVPERLAIAGFNDLQPAAWCTPPLTTVATPRRDIGVHAAKALLQLIDGEEPASRRADLGFRLMLRRSSEGHHHHHH", "soluble on expression in E. coli": "soluble"}
{"sequence": "MSLHELKAAAFPQTTEKISPNWESGINVDLAISTRQYHMQQLFYRYGENNSLSVEGFRKLLQNIGIDKIKRIHIHHDHDHHSDHEHHSDHERHSDHEHHSDHEHHSDHNHAASGKNKRKALCPDHDSDSSGKDPRNSQGKGAHRPEHASGRRNVKDSVSASEVTSTVYNTVSEGTHFLETIETPRPGKLFPKDVSSSTPPSVTSKSRVSRLAGRKTNESVSEPRKGFMYSRNTNENPQECFNASKLLTSHGMGIQVPLNATEFNYLCPAIINQIDARSCLIHTSEKEGHHHHHH", "soluble on expression in E. coli": "not soluble"}
{"sequence": "MSLHGNSEMQKINQTSAMPEKTDVHWSGRFSVAPMLDWTDRHCRYFLRLLSRNTLLYTEMVTTGAIIHGKGDYLAYSEEEHPVALQLGGSDPAALAQCAKLAEARGYDEINLNVGCPSDRVQNGMFGACLMGNAQLVADCVKAMRDVVSIPVTVKTRIGIDDQDSYEFLCDFINTVSGKGECEMFIIHARKAWLSGLSPKENREIPPLDYPRVYQLKRDFPHLTMSINGGIKSLEEAKAHLQHMDGVMVGREAYQNPGILAAVDREIFGSSDTDADPVAVVRAMYPYIERELSQGTYLGHITRHMLGLFQGIPGARQWRRYLSENAHKAGADINVLEHALKLVADKREGHHHHHH", "soluble on expression in E. coli": "soluble"}
{"sequence": "MSLHLALLMRGGDPHCILDFGAGNGELCKLIALQFCYEPTPSLMAEAKENLADLPQISFCSDLEKISDGSVELIFCLEVFEHLPEKETKDALGQFDRLLTDNGNAVIGVPVEIGIPALYKGIFRMSRRFNTFDASIKNVLLAALSFPPKDRPVSEITPGFAFHHEHMGFDYRKLQALLHAQFGLQQVTTSPFSIFGPWLNPEVNFLIQKANPAVNADAAR", "soluble on expression in E. coli": "not soluble"}
{"sequence": "MSLHLKVFAKPKITYVENQTAMELEEQVTLTCEASGDPIPSITWRTSTRNISSEEKASWTRPEKQETLDGHMVVRSHARVSSLTLKSIQYTDAGEYVCTASNTIGQDSQSMYLEVQYAPKLQGPVAVYTWEGNQVNITCEVFAYPSATISWFRDGQLLPSSNYSNIKIYNTPSASYLEVTPDSENDFGNYNCTAVNRIGQESLEFVLVQADTPSSPSIDQVEPYSSTAQVQFDEPEATGGVPILKYKAEWRAMGEEVWHSKWYDAKEASMEGIVTIVGLKPETTYAVRLAALNGKGLGEISAASEFKTQPVREPSAEGHHHHHH", "soluble on expression in E. coli": "not soluble"}
{"sequence": "MSLHPVQHSAREQVNAQVLSAASQKIESLAQQRQWHDYRYTFKVYISSQIATAAPCATTPGVTLTSPVDIALNRMNFTVSCPQSWQMNVAVRPDVLVPVVMAKSLVARDTPLTANDVELKPYNVSAQRREVLMELDDAIGLSSKHALQPGKPITKEELVSPVLVGRDQPVMIVYQSAGITASMPGVALKNGRKGEMVKVRNASSQRVISAMVAESGVVTTVGAEEGHHHHHH", "soluble on expression in E. coli": "soluble"}
{"sequence": "MSLHSPGKAFRAALTKENPLQIVGTINANHALLAQRAGYQAIYLSGGGVAAGSLGLPDLGISTLDDVLTDIRRITDVCSLPLLVDADIGFGSSAFNVARTVKSMIKAGAAGLHIEDQVGAKRCGHRPNKAIVSKEEMVDRIRAAVDAKTDPDFVIMARTDALAVEGLDAAIERAQAYVEAGAEMLFPEAITELAMYRQFADAVQVPILANITEFGATPLFTTDELRSAHVAMALYPLSAFRAMNRAAEHVYNVLRQEGTQKSVIDTMQTRNELYESINYYQYEEKLDNLFARSQVK", "soluble on expression in E. coli": "soluble"}
